# According to FireProtDB (doi:10.1006/jmbi.1998.1906):
# Where “and” joins values, the source holds several entries; their conditions need not be identical. Equal entries are not always repeated.
# B1: Lysozyme C, P61626 (parent)
# chain: MKALIVLGLVLLSVTVQGKVFERCELARTLKRLGMDGYRGISLANWMCLAKWESGYNTRATNYNAGDRSTDYGIFQINSRYWCNDGKTPGAVNACHLSCSALLQDNIADAVACAKRVVRDPQGIRAWVAWRNRCQNRDVRQYVQGCGV
# Variants of: B1
# Details: Homo sapiens; pH 2.7; 49.2 °C; Thermal; DSC; glycine 0.05 M; reversible: yes; structure 1LZ1; whole UniProt chain shown
Variant,ddG of mutation (higher = less stable) [kcal/mol],heat capacity change of unfolding [kcal/mol/K]
MKALIVLGLVLLSVTVQGKVFERCELARTLKRLGMDGYRGISLANWMCLAKWESGYNTRATNYNAGDRSTDYGIFQINSRYWCNDGKTPGAVNACHLSCSALLQDNIADAVACAKRVVRDPQGIRAWVAWRNRCQNRDARQYVQGCGV [V139A],1.75,1.37
MKALIVLGLVLLSVTVQGKVFERCELARTLKRLGMDGYRGISLANWMCLAKWESGYNTRATNYNAGDRSTDYGIFQINSRYWCNDGKTPGAVNACHLSCSALLQDNIADAVACAKRVVRDPQGIRAWVAWRNRCQNRDVRQYAQGCGV [V143A],1.6,1.56
MKALIVLGLVLLSVTVQGKVFERCELARTLKRLGMDGYRGISLANWMCLAKWESGYNTRATNYNAGDRSTDYGIFQINSRYWCNDGKTPGAVNACHLSCSALLQDNIADAVACAKRVVRDPQGVRAWVAWRNRCQNRDVRQYVQGCGV [I124V],0.98,1.72
MKALIVLGLVLLSVTVQGKAFERCELARTLKRLGMDGYRGISLANWMCLAKWESGYNTRATNYNAGDRSTDYGIFQINSRYWCNDGKTPGAVNACHLSCSALLQDNIADAVACAKRVVRDPQGIRAWVAWRNRCQNRDVRQYVQGCGV [V20A],1.51,1.44
MKALIVLGLVLLSVTVQGKVFERCELARTLKRLGMDGYRGISLANWMCLAKWESGYNTRATNYNAGDRSTDYGVFQINSRYWCNDGKTPGAVNACHLSCSALLQDNIADAVACAKRVVRDPQGIRAWVAWRNRCQNRDVRQYVQGCGV [I74V],1.34,1.29

# Same assay, conditions: Homo sapiens; pH 2.7; Thermal; DSC; glycine 0.05 M; reversible: yes; structure 1LZ1; whole UniProt chain shown
Variant,Tm,"change of melting temperature, mutant - wild type (higher = more stable)",heat capacity change of unfolding [kcal/mol/K],unfolding enthalpy (calorimetric),unfolding enthalpy (van 't Hoff) [kcal/mol]
MKALIVLGLVLLSVTVQGKVFERCELARTLKRLGMDGYRGISLANWMCLAKWESGYNTRATNYNAGDRSTDYGIFQINSRYWCNDGKTPGAVNACHLSCSALLQDNIADAVACAKRVVRDPQGIRAWVAWRNRCQNRDARQYVQGCGV [V139A],39.9 °C,-9.3 °C,1.37,65.3 kcal/mol,–
MKALIVLGLVLLSVTVQGKVFERCELARTLKRLGMDGYRGISLANWMCLAKWESGYNTRATNYNAGDRSTDYGIFQINSRYWCNDGKTPGAVNACHLSCSALLQDNIADAVACAKRVVRDPQGIRAWVAWRNRCQNRDVRQYAQGCGV [V143A],42.2 °C,-7 °C,1.56,78 kcal/mol,–
MKALIVLGLVLLSVTVQGKVFERCELARTLKRLGMDGYRGISLANWMCLAKWESGYNTRATNYNAGDRSTDYGIFQINSRYWCNDGKTPGAVNACHLSCSALLQDNIADAVACAKRVVRDPQGVRAWVAWRNRCQNRDVRQYVQGCGV [I124V],44.5 °C and 43.6 °C,-4.7 °C and -5.6 °C,1.72,70.3 kcal/mol and 59.8 kcal/mol,66.7
MKALIVLGLVLLSVTVQGKAFERCELARTLKRLGMDGYRGISLANWMCLAKWESGYNTRATNYNAGDRSTDYGIFQINSRYWCNDGKTPGAVNACHLSCSALLQDNIADAVACAKRVVRDPQGIRAWVAWRNRCQNRDVRQYVQGCGV [V20A],41.3 °C,-7.9 °C,1.44,65.5 kcal/mol,–
MKALIVLGLVLLSVTVQGKVFERCELARTLKRLGMDGYRGISLANWMCLAKWESGYNTRATNYNAGDRSTDYGVFQINSRYWCNDGKTPGAVNACHLSCSALLQDNIADAVACAKRVVRDPQGIRAWVAWRNRCQNRDVRQYVQGCGV [I74V],42.9 °C,-6.3 °C,1.29,71.8 kcal/mol,–

# Same assay, conditions: Homo sapiens; pH 2.72; Thermal; DSC; glycine 0.05 M; reversible: yes; structure 1LZ1; whole UniProt chain shown
Variant,Tm [°C],unfolding enthalpy (calorimetric) [kcal/mol],unfolding enthalpy (van 't Hoff) [kcal/mol]
MKALIVLGLVLLSVTVQGKVFERCELARTLKRLGMDGYRGISLANWMCLAKWESGYNTRATNYNAGDRSTDYGIFQINSRYWCNDGKTPGAVNACHLSCSALLQDNIADAVACAKRVVRDPQGIRAWVAWRNRCQNRDARQYVQGCGV [V139A],40.3,53.6,56.9
MKALIVLGLVLLSVTVQGKVFERCELARTLKRLGMDGYRGISLANWMCLAKWESGYNTRATNYNAGDRSTDYGIFQINSRYWCNDGKTPGAVNACHLSCSALLQDNIADAVACAKRVVRDPQGIRAWVAWRNRCQNRDVRQYAQGCGV [V143A],42.8,67.2,70.6

# Same assay, conditions: Homo sapiens; pH 2.86; Thermal; DSC; glycine 0.05 M; reversible: yes; structure 1LZ1; whole UniProt chain shown
Variant,Tm [°C],unfolding enthalpy (calorimetric) [kcal/mol],unfolding enthalpy (van 't Hoff) [kcal/mol]
MKALIVLGLVLLSVTVQGKVFERCELARTLKRLGMDGYRGISLANWMCLAKWESGYNTRATNYNAGDRSTDYGIFQINSRYWCNDGKTPGAVNACHLSCSALLQDNIADAVACAKRVVRDPQGIRAWVAWRNRCQNRDARQYVQGCGV [V139A],43.6,57.9,62.7

# Same assay, conditions: Homo sapiens; pH 3; Thermal; DSC; glycine 0.05 M; reversible: yes; structure 1LZ1; whole UniProt chain shown
Variant,Tm [°C],unfolding enthalpy (calorimetric) [kcal/mol],unfolding enthalpy (van 't Hoff) [kcal/mol]
MKALIVLGLVLLSVTVQGKVFERCELARTLKRLGMDGYRGISLANWMCLAKWESGYNTRATNYNAGDRSTDYGIFQINSRYWCNDGKTPGAVNACHLSCSALLQDNIADAVACAKRVVRDPQGIRAWVAWRNRCQNRDARQYVQGCGV [V139A],47,61.5,67.5
MKALIVLGLVLLSVTVQGKVFERCELARTLKRLGMDGYRGISLANWMCLAKWESGYNTRATNYNAGDRSTDYGIFQINSRYWCNDGKTPGAVNACHLSCSALLQDNIADAVACAKRVVRDPQGVRAWVAWRNRCQNRDVRQYVQGCGV [I124V],49.5,70.6,75.6
MKALIVLGLVLLSVTVQGKVFERCELARTLKRLGMDGYRGISLANWMCLAKWESGYNTRATNYNAGDRSTDYGVFQINSRYWCNDGKTPGAVNACHLSCSALLQDNIADAVACAKRVVRDPQGIRAWVAWRNRCQNRDVRQYVQGCGV [I74V],48.2,69.4,73

# Same assay, conditions: Homo sapiens; pH 3.14; Thermal; DSC; glycine 0.05 M; reversible: yes; structure 1LZ1; whole UniProt chain shown
Variant,Tm [°C],"change of melting temperature, mutant - wild type (higher = more stable) [°C]",unfolding enthalpy (calorimetric) [kcal/mol],unfolding enthalpy (van 't Hoff) [kcal/mol]
MKALIVLGLVLLSVTVQGKVFERCELARTLKRLGMDGYRGISLANWMCLAKWESGYNTRATNYNAGDRSTDYGIFQINSRYWCNDGKTPGAVNACHLSCSALLQDNIADAVACAKRVVRDPQGIRAWVAWRNRCQNRDARQYVQGCGV [V139A],50.1,-7.7,67.2,72.5

# Same assay, conditions: Homo sapiens; pH 2.87; Thermal; DSC; glycine 0.05 M; reversible: yes; structure 1LZ1; whole UniProt chain shown
Variant,Tm [°C],unfolding enthalpy (calorimetric) [kcal/mol],unfolding enthalpy (van 't Hoff) [kcal/mol]
MKALIVLGLVLLSVTVQGKVFERCELARTLKRLGMDGYRGISLANWMCLAKWESGYNTRATNYNAGDRSTDYGIFQINSRYWCNDGKTPGAVNACHLSCSALLQDNIADAVACAKRVVRDPQGIRAWVAWRNRCQNRDVRQYAQGCGV [V143A],45.9,72.2,76.3

# Same assay, conditions: Homo sapiens; pH 3.02; Thermal; DSC; glycine 0.05 M; reversible: yes; structure 1LZ1; whole UniProt chain shown
Variant,Tm [°C],unfolding enthalpy (calorimetric) [kcal/mol],unfolding enthalpy (van 't Hoff) [kcal/mol]
MKALIVLGLVLLSVTVQGKVFERCELARTLKRLGMDGYRGISLANWMCLAKWESGYNTRATNYNAGDRSTDYGIFQINSRYWCNDGKTPGAVNACHLSCSALLQDNIADAVACAKRVVRDPQGIRAWVAWRNRCQNRDVRQYAQGCGV [V143A],47.9,76.3,78
MKALIVLGLVLLSVTVQGKAFERCELARTLKRLGMDGYRGISLANWMCLAKWESGYNTRATNYNAGDRSTDYGIFQINSRYWCNDGKTPGAVNACHLSCSALLQDNIADAVACAKRVVRDPQGIRAWVAWRNRCQNRDVRQYVQGCGV [V20A],47.3,62,67.5

# Same assay, conditions: Homo sapiens; pH 3.17; Thermal; DSC; glycine 0.05 M; reversible: yes; structure 1LZ1; whole UniProt chain shown
Variant,Tm [°C],unfolding enthalpy (calorimetric) [kcal/mol],unfolding enthalpy (van 't Hoff) [kcal/mol]
MKALIVLGLVLLSVTVQGKVFERCELARTLKRLGMDGYRGISLANWMCLAKWESGYNTRATNYNAGDRSTDYGIFQINSRYWCNDGKTPGAVNACHLSCSALLQDNIADAVACAKRVVRDPQGIRAWVAWRNRCQNRDVRQYAQGCGV [V143A],50.8,81.1,82.8

# Same assay, conditions: Homo sapiens; pH 3.1; Thermal; DSC; glycine 0.05 M; reversible: yes; structure 1LZ1; whole UniProt chain shown
Variant,Tm [°C],unfolding enthalpy (calorimetric) [kcal/mol],unfolding enthalpy (van 't Hoff) [kcal/mol]
MKALIVLGLVLLSVTVQGKVFERCELARTLKRLGMDGYRGISLANWMCLAKWESGYNTRATNYNAGDRSTDYGIFQINSRYWCNDGKTPGAVNACHLSCSALLQDNIADAVACAKRVVRDPQGVRAWVAWRNRCQNRDVRQYVQGCGV [I124V],51.3,73.7,78
MKALIVLGLVLLSVTVQGKAFERCELARTLKRLGMDGYRGISLANWMCLAKWESGYNTRATNYNAGDRSTDYGIFQINSRYWCNDGKTPGAVNACHLSCSALLQDNIADAVACAKRVVRDPQGIRAWVAWRNRCQNRDVRQYVQGCGV [V20A],48.3,65.1,70.6
MKALIVLGLVLLSVTVQGKVFERCELARTLKRLGMDGYRGISLANWMCLAKWESGYNTRATNYNAGDRSTDYGVFQINSRYWCNDGKTPGAVNACHLSCSALLQDNIADAVACAKRVVRDPQGIRAWVAWRNRCQNRDVRQYVQGCGV [I74V],50.5,74.4,78.2

# Same assay, conditions: Homo sapiens; pH 2.71; Thermal; DSC; glycine 0.05 M; reversible: yes; structure 1LZ1; whole UniProt chain shown
Variant,Tm [°C],unfolding enthalpy (calorimetric) [kcal/mol],unfolding enthalpy (van 't Hoff) [kcal/mol]
MKALIVLGLVLLSVTVQGKAFERCELARTLKRLGMDGYRGISLANWMCLAKWESGYNTRATNYNAGDRSTDYGIFQINSRYWCNDGKTPGAVNACHLSCSALLQDNIADAVACAKRVVRDPQGIRAWVAWRNRCQNRDVRQYVQGCGV [V20A],41.4,54.5,60.3

# Same assay, conditions: Homo sapiens; pH 2.8; Thermal; DSC; glycine 0.05 M; reversible: yes; structure 1LZ1; whole UniProt chain shown
Variant,Tm [°C],unfolding enthalpy (calorimetric) [kcal/mol],unfolding enthalpy (van 't Hoff) [kcal/mol]
MKALIVLGLVLLSVTVQGKVFERCELARTLKRLGMDGYRGISLANWMCLAKWESGYNTRATNYNAGDRSTDYGVFQINSRYWCNDGKTPGAVNACHLSCSALLQDNIADAVACAKRVVRDPQGIRAWVAWRNRCQNRDVRQYVQGCGV [I74V],45.3,66.7,71.1
